Reference: US11059842B2, “Monosaccharide amine and 3-nitro-2-phenyl-2H-chromene based inhibitors of glucose kinases” (UNIVERSITY OF SOUTH CAROLINA, priority 2019, dated 2021)

Legend:
[1] = substrate: O=C[C@H](O)[C@@H](O)[C@H](O)[C@H](O)CO; assay: HsHxKIV Michaelis-Menten kinetics; assay type: biochemical, Homo sapiens; details: other: substrate; triplicate runs
Protocol: (§1) D-Glucose was also tested as a control with alternative substrates. The protein expression work for TcGlcK and HsHxKIV were each made possible through the E. coli strain BL21(DE3) system. Purification of each enzyme was performed through cobalt-NTA chromatography followed by size-exclusion chromatography; assessment of purity was performed by SDS-PAGE. In enzymatic assays, a time-optimum (TOPT) was determined to be 120 seconds for TcGlcK and 600 seconds for HsHxKIV; all assays were run at room temperature. A general reaction scheme included a first reaction in which the monosaccharide, ATP, and Mg^2+ react with the enzyme, e.g., TcGlcK, forming a hexose-phosphate and ADP. In a second reaction, hexose-phosphate with the assistance of glucose-6-phosphate dehydrogenase (G6PDH) and NADP^+ was converted to the lactone form of the hexose-phosphate and NADPH. Fluorescence of NADPH was monitored using a fluorescence microplate reader with […] wavelengths of 340 nm and 485 nm, respectively.
(§2) FIG. 4 and FIG. 5 present typical Michaelis-Menten enzyme kinetic plots for D-glucose. […] Michaelis-Menten constant (KM) values, which were used as the set final assay concentrations of substrates D-glucose and ATP for the primary screens, were determined for both TcGlcK and HsHxKIV in triplicate runs. […]

[2] = substrate: O=C[C@H](O)[C@@H](O)[C@H](O)[C@H](O)CO; assay: TcGlcK Michaelis-Menten kinetics and substrate range; assay type: biochemical, Trypanosoma cruzi; details: other: substrate; triplicate runs
Protocol: as §1, with “In a second reaction, hexose-phosphate with the assistance of glucose-6-phosphate dehydrogenase (G6PDH) and NADP^+ was converted to the lactone form of the hexose-phosphate and NADPH.” left out
as §2
All phosphorylated hexoses were shown getting converted into their corresponding products by G6PDH, in abundant quantities through a 30-second time frame. […]

Row | Protein | Km [1] [mM] | Km [2] [mM]
1 | HsHxKIV (Homo sapiens) (protein) MLDDRARMEAAKKEKVEQILAEFQLQEEDLKKVMRRMQKEMDRGLRLETHEEASVKMLPTYVRSTPEGSEVGDFLSLDLGGTNFRVMLVKVGEGEEGQWSVKTKHQMYSIPEDAMTGTAEMLFDYISECISDFLDKHQMKHKKLPLGFTFSFPVRHEDIDKGILLNWTKGFKASGAEGNNVVGLLRDAIKRRGDFEMDVVAMVNDTVATMISCYYEDHQCEVGMIVGTGCNACYMEEMQNVELVEGDEGRMCVNTEWGAFGDSGELDEFLLEYDRLVDESSANPGQQLYEKLIGGKYMGELVRLVLLRLVDENLLFHGEASEQLRTRGAFETRFVSQVESDTGDRKQIYNILSTLGLRPSTTDCDIVRRACESVSTRAAHMCSAGLAGVINRMRESRSEDVMRITVGVDGSVYKLHPSFKERFHASVRRLTPSCEITFIESEEGSGRGAALVSAVACKKACMLGQ | 43 | –
2 | TcGlcK (Trypanosoma cruzi strain CL Brener) (protein) MNIKELSLHELCEELKTPAWNVPLTFVGDVGGTSARMGFVREGKNDSVHACVTRYSMKRKDITELIEFFNEIIELMPASVIKRVKAGVINVPGPVTGGAVGGPFNNLKGIARLSDYPKALFPPGRSAILNDLEAGGFGVLAVSDAHVFSEYFGVMWEGTQWRTCEQEPAGSVIGRGRCLVLAPGTGLGSSLIYYNPMNQQHIVVPLELGSQTIPMRKDIDYIQTLHAELKLLPNYENMVSGAGLEFHYRQVVRGSRPPCSAGEIAKLASEGDANACKAMKKYHEYLMRVGSEASMALLPLTIVLVGDNIVNNAFFYRNPQNLKEMHREALNHEMERFGFQSRVTYLRQKKLLNLNLMGCYRCGLDLSVGKKQKAQL | – | 0.40
